These results are taken from the RNAGym collection of RNA variant scans (doi:10.7554/elife.80360).

To fix the notation:
B1: Twister Ribozyme (parent)
chain: AACACUGCCAAUGCCGGUCCCAAGCCCGGAUAAAAGUGGAGGGGGCGG

In this data set the parent is B1. The data set can be described thus: self-cleavage, relative activity (ratio to wild type); higher = more cleavage; co-transcriptional.
Regarding U31C G41C, the self-cleavage stood at 0.306.
The result for U31C G41A reads 0.539.
In the case of U31G G44A it was 0.825; in that of U31G G44C, 0.974.
The result for A30U A32C reads 0.945.
A30U A32U: the self-cleavage was 0.879.
In the case of A32C A34C it was 0.329.
The result for U31A C46G reads 0.763; that for U31A C46U, 0.582; that for U31A G39U, 0.168.
With A32G G47C, the self-cleavage came to 0.473.
The result for A30U G47A reads 0.927.
Turning to A30U G47U, the self-cleavage was 0.954.
The result for U31C G39A reads 0.456.
The result for U31C G39C reads 0.111; that for A30U U37G, 0.912.
The result for A32G G42A reads 0.319.
As for A32G G42U, the self-cleavage was 0.357.
The result for A32G G42C reads 0.38; that for U31C G48U, 1.11.
In the case of U31G G48A it was 0.992; in that of U31G G48U, 0.938.
On to U31G U37C, for which the self-cleavage was 0.634.
U31G U37A: the self-cleavage is 0.818.
Regarding U31G G36U, the self-cleavage was found to be 0.374.
In the case of U31G G41A it was 0.574.
The result for U31G G38C reads 0.894; that for A30U G41C, 0.286.
Consider A30U G41U, for which the self-cleavage came out at 0.712.
The result for U31G G39U reads 0.203; that for U31A G38U, 0.692.
The result for U31A G38C reads 0.801.
In the case of U31A G38A it was 0.509; in that of U31G, 0.933; in that of U31C, 1.01.
Regarding U31A, the self-cleavage was 0.751.
In the case of A32G A34C it was 0.137; in that of U31C G42U, 0.407; in that of A30G U37C, 0.486.
As to A30G U37A, the self-cleavage turned out to be 0.901.
The result for A32C G47A reads 0.764.
The result for A32C G47U reads 0.783.
The result for A32C G47C reads 0.556; that for U31G A40U, 0.199; that for A32G C46G, 0.854.
A32G C46U: the self-cleavage is 0.933.
In the case of A32G C46A it was 0.753; in that of A32C G43A, 0.242.
As to A32C G43C, the self-cleavage stood at 0.153.
In the case of U31A A33G it was 0.82.
In the case of U31A A33U it was 0.935.
In the case of U31G A33C it was 1.03.
Regarding U31G A33U, the self-cleavage was 0.876.
A32G G44C: the self-cleavage came out at 0.907.
As to A32G G44A, the self-cleavage came out at 0.929.
In the case of A32G G38A it was 0.846; in that of A32G G38C, 0.892.
With U31C A32U, the self-cleavage is 1.02.
The result for U31G C46G reads 0.852; that for U31G C46U, 0.928.
The result for A30U G45A reads 0.817.
The result for A30U G45U reads 0.798; that for A30U G45C, 0.661; that for A32G U37A, 0.752.
Regarding A32G U37C, the self-cleavage was found to be 0.844.
In the case of U31G G47A it was 0.782; in that of U31G G47C, 0.755.
The result for U31G G45U reads 0.883; that for U31G G45C, 0.653; that for U31A G45A, 0.727.
The result for U31A G45U reads 0.619; that for U31G A32G, 0.836.
As to U31G A32C, the self-cleavage was 0.946.
In the case of A32G A40G it was 0.147; in that of U31G A34U, 0.904.
In the case of U31G A34G, the self-cleavage amounted to 0.894.
In the case of U31A U37G it was 0.659.
On to U31A U37C, for which the self-cleavage was 0.591.
The result for U31A U37A reads 0.721; that for U31C G38C, 0.842; that for A32C C46A, 0.837.
In the case of A32C C46G it was 1.03; in that of A32G G41A, 0.518.
For A32G G41U, the self-cleavage stood at 0.609.
The result for A32G G41C reads 0.211.
In the case of U31C A34G it was 0.664; in that of A30U G44A, 0.971.
Regarding A30U G44C, the self-cleavage was 0.963.
The result for A30U A34U reads 0.85.
In the case of A30U A34G it was 0.937.
The result for U31G G43C reads 0.18; that for U31G G43U, 0.467; that for A32C A33G, 0.945.
Consider A32G G43C, for which the self-cleavage was 0.0899.
The result for U31C G43A reads 0.323; that for U31C G43C, 0.194; that for A30U C46A, 0.872.
In the case of A30U C46G it was 0.931.
Take A32C G39U: the self-cleavage was found to be 0.235.
The result for A32C G39A reads 0.586; that for A32C G39C, 0.079; that for A32G G36A, 0.618.
In the case of A30U G38A it was 0.987; in that of A32C A35U, 1.05; in that of A32C A35C, 0.911.
On to U31A A40G, for which the self-cleavage worked out at 0.0937.
For U31A A40U, the self-cleavage was 0.136.
In the case of U31A A32C it was 1.09; in that of U31A A32U, 1.05.
The result for A32C G42U reads 0.266.
The result for A30U A33C reads 0.847.
Turning to A32C A40C, the self-cleavage was 0.159.
In the case of U31A G42A it was 0.349; in that of U31A G42C, 0.503.
As for A32C U37A, the self-cleavage is 0.732.
In the case of A32C U37C it was 0.494; in that of U31C G45A, 0.965.
In the case of A30G G48U it was 0.96; in that of A30G G48C, 1.13; in that of U31C G44C, 0.976.
The result for U31C G44A reads 1.1; that for A30G U31G, 1.02.
Regarding A30G U31A, the self-cleavage turned out to be 0.744.
In the case of A32U A33U it was 0.938.
The result for A32U A33C reads 0.895; that for A32G A33G, 0.654; that for U31C G47A, 0.926.
The result for A32C G36C reads 0.283; that for A32C G36A, 0.473.
As to U31C G36U, the self-cleavage came out at 0.321.
The result for U31C G36C reads 0.635; that for U31G A35U, 1.01; that for A32C G38U, 0.723.
In the case of A30U G42A it was 0.464; in that of U31A G44C, 0.711; in that of A32G G45A, 0.921.
In the case of A32G G45U it was 0.668; in that of U31A G41U, 0.55.
Consider A30U G43A, for which the self-cleavage was 0.278.
In the case of U31C A40G it was 0.0669; in that of U31C A40C, 0.249.
The result for U31C A33C reads 0.925; that for U31A A34U, 1.07.
The result for U31A A34G reads 0.853; that for U31C C46G, 0.923.
Regarding U31C C46U, the self-cleavage stood at 0.788.
The result for U31C C46A reads 0.733.
In the case of A32C G44C it was 1.03.
With A32C G44A, the self-cleavage amounted to 0.881.
In the case of A32C G44U it was 0.936; in that of A32G A35C, 0.914.
The result for U31G G42C reads 0.699.
The result for U31G G42A reads 0.497; that for A30U U31C, 1.02; that for A30U U31G, 0.993.
In the case of U31A A35U, the self-cleavage came out at 1.09.
In the case of U31A A35C it was 0.889; in that of U31A A35G, 0.803.
In the case of A30U G39C it was 0.185; in that of A30U G39A, 0.614; in that of A30U G39U, 0.212.
The result for U31C A35G reads 0.682; that for U31C A35C, 1.03; that for A30U G48U, 1.09.
On to A30U G48A, for which the self-cleavage stood at 1.
As for A30U G36A, the self-cleavage was determined as 0.762.
In the case of A30U G36U it was 0.294.
